Laboratory results from patent US20230310628A1, “Multi-Targeted Multi-Valent Ligand Drug Particles for the Treatment and Prevention of Diseases and Conditions” (priority 2017, published 2023).
“And” between values parts separate entries of the source, which are not always exact repeats. Equal entries are not always repeated.

Columns and labels:
[1] = target: human epidermal growth factor receptor 2 (HER2) (human) (UniProt P04626); experiment: dose-uptake, fluorometry of lysed cells, 37 °C, 4 hr; MKN-7 cells; 15 F5 scFv per liposome
[2] = target: human epidermal growth factor receptor 2 (HER2) (human) (UniProt P04626); experiment: dose-uptake, fluorometry of lysed cells, 37 °C, 4 hr; BT-474 cells; 10 F5 scFv per liposome
[3] = target: human epidermal growth factor receptor 2 (HER2) (human) (UniProt P04626); experiment: flow cytometry (MFI) of DiD-labelled liposomes, 75 µM PL, 37 °C, 4 hr; MKN-7 cells (moderate HER2 and EGFR)
[4] = target: human epidermal growth factor receptor 2 (HER2) (human) (UniProt P04626); experiment: dose-uptake, fluorometry of lysed cells, 37 °C, 4 hr; BT-474 cells; 15 F5 scFv per liposome
[5] = target: human epidermal growth factor receptor 2 (HER2) (human) (UniProt P04626); experiment: dose-uptake, fluorometry of lysed cells, 37 °C, 4 hr; BT-474 cells; 5 F5 scFv per liposome
[6] = target: human epidermal growth factor receptor 2 (HER2) (human) (UniProt P04626); experiment: dose-uptake, fluorometry of lysed cells; SK-BR-3 cells; 15 F5 scFv per liposome
[7] = target: epidermal growth factor receptor (EGFR) (human) (UniProt P00533); experiment: dose-uptake, fluorometry of lysed cells, 37 °C, 4 hr; MDA-468 cells (EGFR overexpressed, negligible HER2); 5 F5 scFv per liposome; no significant uptake compared to non-targeted liposomes
[8] = target: human epidermal growth factor receptor 2 (HER2) (human) (UniProt P04626); experiment: dose-uptake, fluorometry of lysed cells, 37 °C, 4 hr; SK-BR-3 cells; plateau at ˜200 µM PL
[9] = target: epidermal growth factor receptor (EGFR) (human) (UniProt P00533); experiment: dose-uptake, fluorometry of lysed cells, 37 °C, 4 hr; MDA-468 cells (EGFR overexpressed, negligible HER2); 15 F5 scFv per liposome; no significant uptake compared to non-targeted liposomes
[10] = target: human epidermal growth factor receptor 2 (HER2) (human) (UniProt P04626); experiment: dose-uptake, fluorometry of lysed cells, 37 °C, 4 hr; MKN-7 cells; 5 F5 scFv per liposome
[11] = target: human epidermal growth factor receptor 2 (HER2) (human) (UniProt P04626); experiment: dose-uptake, fluorometry of lysed cells; SK-BR-3 cells; 10 F5 scFv per liposome
[12] = target: epidermal growth factor receptor (EGFR) (human) (UniProt P00533); experiment: dose-uptake, fluorometry of lysed cells, 37 °C, 4 hr; MDA-468 cells (EGFR overexpressed, negligible HER2); 10 F5 scFv per liposome; no significant uptake compared to non-targeted liposomes
[13] = target: human epidermal growth factor receptor 2 (HER2) (human) (UniProt P04626); experiment: flow cytometry (MFI) of DiD-labelled liposomes, 75 µM PL, 37 °C, 4 hr; BT-474 cells; mono-targeted counterpart with 5 F5 scFv per liposome
[14] = target: human epidermal growth factor receptor 2 (HER2) (human) (UniProt P04626); experiment: dose-uptake, fluorometry of lysed cells, 37 °C, 4 hr; MKN-7 cells
[15] = target: human epidermal growth factor receptor 2 (HER2) (human) (UniProt P04626); experiment: dose-uptake, fluorometry of lysed cells, 37 °C, 4 hr; MKN-7 cells; 10 F5 scFv per liposome
[16] = target: epidermal growth factor receptor (EGFR) (human) (UniProt P00533); experiment: dose-uptake, fluorometry of lysed cells, 37 °C, 4 hr; MDA-468 cells (EGFR overexpressed, negligible HER2); 20 cetuximab-Fab′ and 10 F5 scFv per liposome
[17] = target: epidermal growth factor receptor (EGFR) (human) (UniProt P00533); experiment: dose-uptake, fluorometry of lysed cells, 37 °C, 4 hr; MDA-468 cells (EGFR overexpressed, negligible HER2); 10 cetuximab-Fab′ and 5 F5 scFv per liposome
[18] = target: epidermal growth factor receptor (EGFR) (human) (UniProt P00533); experiment: flow cytometry (MFI) of DiD-labelled liposomes, 75 µM PL, 37 °C, 4 hr; MDA-468 cells (EGFR overexpressed, negligible HER2)
[19] = target: human epidermal growth factor receptor 2 (HER2) (human) (UniProt P04626); experiment: dose-uptake, fluorometry of lysed cells, 37 °C, 4 hr; SK-BR-3 cells (HER2 overexpressed, negligible EGFR)
[20] = target: epidermal growth factor receptor (EGFR) (human) (UniProt P00533); experiment: dose-uptake, fluorometry of lysed cells, 37 °C, 4 hr; MDA-468 cells (EGFR overexpressed, negligible HER2); 10 cetuximab-Fab′ and 10 F5 scFv per liposome
[21] = target: epidermal growth factor receptor (EGFR) (human) (UniProt P00533); experiment: dose-uptake, fluorometry of lysed cells, 37 °C, 4 hr; MDA-468 cells (EGFR overexpressed, negligible HER2); 20 cetuximab-Fab′ and 15 F5 scFv per liposome
[22] = target: epidermal growth factor receptor (EGFR) (human) (UniProt P00533); experiment: dose-uptake, fluorometry of lysed cells, 37 °C, 4 hr; MDA-468 cells (EGFR overexpressed, negligible HER2); 20 cetuximab-Fab′ and 5 F5 scFv per liposome

Substance: anti-HER2 F5 scFv-conjugated immunoliposomes
- LS/Cell Max (liposomes per cell) (liposomes/cell) [1]: 4100
- LS/Cell Max (liposomes per cell) (liposomes/cell) [2]: 72000
- fold binding over non-targeted liposomes (NT) [3]: 300 fold
- LS/Cell Max (liposomes per cell) (liposomes/cell) [4]: 68000
- LS/Cell Max (liposomes per cell) (liposomes/cell) [5]: 40000
- observed cellular uptake (liposomes per cell) (liposomes/cell) [6]: 230000
- LS/Cell Max (liposomes per cell) (liposomes/cell) [7]: 5300
- F5 scFv per cell at the plateau [8]: 3e+06 ligands/cell
- liposomes per cell at the plateau (liposomes/cell) [8]: 200000 and 300000
- LS/Cell Max (liposomes per cell) (liposomes/cell) [9]: 8000
- LS/Cell Max (liposomes per cell) (liposomes/cell) [10]: 8100
- observed cellular uptake (liposomes per cell) (liposomes/cell) [11]: 230000
- LS/Cell Max (liposomes per cell) (liposomes/cell) [12]: 1100
- fold binding over non-targeted liposomes (NT) [13]: 200 fold
- liposomes per cell (liposomes/cell) [14]: < 20000
- LS/Cell Max (liposomes per cell) (liposomes/cell) [15]: 4900

Substance: anti-HER2 and anti-EGFR dual-targeted immunoliposomes
- Anti-EGFR Lg/Cell Max (ligands per cell) [16]: 1.1e+06 ligands/cell
- LS/Cell Max (liposomes per cell) (liposomes/cell) [16]: 53000
- Anti-EGFR Lg/Cell Max (ligands per cell) [17]: 270000 ligands/cell
- LS/Cell Max (liposomes per cell) (liposomes/cell) [17]: 27000
- fold binding over non-targeted liposomes (NT) [18]: 500 fold
- F5 scFv per cell [19]: 2e+06 ligands/cell and 3e+06 ligands/cell
- Anti-EGFR Lg/Cell Max (ligands per cell) [20]: 220000 ligands/cell
- LS/Cell Max (liposomes per cell) (liposomes/cell) [20]: 22000
- Anti-EGFR Lg/Cell Max (ligands per cell) [21]: 1.2e+06 ligands/cell
- LS/Cell Max (liposomes per cell) (liposomes/cell) [21]: 59000
- Anti-EGFR Lg/Cell Max (ligands per cell) [22]: 1.2e+06 ligands/cell
- LS/Cell Max (liposomes per cell) (liposomes/cell) [22]: 61000
